Test results as given in patent publication US6096529A, “Recombinant α-2,3-sialyltransferases and their uses” (priority 1997, dated 2000).

Tests used:
Test in all cases: Determination of kinetic constants with APTS-labelled acceptors
Assay type in all cases: biochemical, Neisseria meningitidis
[1] = system: CC(=O)N[C@H]1[C@H](O[C@H]2[C@@H](O)[C@@H](CO)O[C@@H](O[C@@H]([C@H](O)[C@@H](O)CNc3cc(S(=O)(=O)O)c4ccc5c(S(=O)(=O)O)cc(S(=O)(=O)O)c6ccc3c4c65)[C@H](O)CO)[C@@H]2O)O[C@H](CO)[C@@H](O)[C@@H]1O[C@@H]1O[C@H](CO)[C@H](O)[C@H](O)[C@H]1O; details: other: apparent; APTS-labelled acceptor, CMP-Neu5Ac 200 μM, room temperature
Procedure: (§1) Measurement of Sialyltransferase Activity and Survey of Oligosaccharide Acceptors--FCHASE-labelled oligosaccharides were prepared as described above, while the APTS-labelled oligosaccharides were prepared by reductive amination of reducing saccharides according to the method described by Guttman et at. (Anal. Biochem233:234 (1996)) The Gal-β-APTS acceptor was derived from labelling of lactose; the Gal-α-APTS acceptor was derived from labelling of melibiose; the N-acetyllactosamine (LacNAc) acceptor was synthesized by APTS labelling of chitobiose, followed by enzymatic modification with bovine β-Galactosyl transferase to produce the LacNAc moiety-, the Gal-α-1.4-Gal-β acceptor was enzymatically synthesized from β-Gal-APTS with the α-1,4-galactosyltransferase from N. meningitidis. All of the reductive amination products were purified by gel permeation chromatography on Toyopearl HW4OF (Sigma-Aldrich), 1.5 cm×15 cm column, using water as the eluant. It should be mentioned that all of these molecules have the terminal reducing sugar ring opened in the process of labelling. APTS-saccharides were quantitated by measuring the A455, and using an extinction coefficient of 17160 M^-1 cm^-1 . The TMR-labelled oligosaccharides were prepared as described by Zhao et al. (1994) Glycobiology 4:239-242. For the TMR labelled acceptors we used an extinction coefficient of 80,000 M^-1 cm^-1 for quantitation. The sialyltransferase activity was routinely measured using 0.5 mM FCHASE-N-acetyllactosamine as the acceptor and the assay conditions as described above. For measurement of Km, and kcat values, assays were performed with the APTS labelled saccharides at room temperature. Assays were monitored so that for all acceptor concentrations, no more than 10% conversion to product occurred. The ranges of acceptor and donor concentrations were determined empirically, then a range spanning 0.2Km, up to 5Km, was used to obtain the values. Data were examined using the Grafit™3.0 software package (Erithacus Software, London, UK).
(§2) The reaction mixtures from the FCHASE- and APTS-labelled acceptors were analyzed by capillary electrophoresis performed with a Beckman instruments (Fullerton, Calif.) P/ACE 5510 equipped with a 3 mW Argon-ion laser induced fluorescence detector, λ excitation=488 nm λ emission=520 nm. The Capillary was of bare silica 75 μ X 57 cm, with the detector at 50 cm. The capillary was conditioned before each run by washing with 0.2 M NaOH for 2 min., water for 2 min., and either 20 mM sodium phosphate buffer, pH 7.4 or sodium tetraborate, pH 9.3, 2 min. Samples were introduced by pressure injection for 2-5 seconds, and the separation was performed at 18 kV, 75 μA. Peak integration was performed with the Beckman PACE-Station software (version 1).

[2] = system: CC(=O)N[C@H]1[C@H]([C@H](O)[C@H](O)CO)O[C@](OP(=O)(O)OC[C@H]2O[C@@H](n3ccc(N)nc3=O)[C@H](O)[C@@H]2O)(C(=O)O)C[C@@H]1O; details: other: acceptor LacNAc-APTS (0.8 mM) or lacto-N-neotetraose-APTS (0.2 mM)
Procedure: as §1, §2

[3] = system: CC(=O)N[C@H]1[C@H](O[C@@H]([C@H](O)[C@H](CNc2cc(S(=O)(=O)O)c3ccc4c(S(=O)(=O)O)cc(S(=O)(=O)O)c5ccc2c3c54)NC(C)=O)[C@H](O)CO)O[C@H](CO)[C@@H](O[C@@H]2O[C@H](CO)[C@H](O)[C@H](O)[C@H]2O)[C@@H]1O; details: other: apparent; APTS-labelled acceptor, CMP-Neu5Ac 200 μM, room temperature
Procedure: as §1, §2

[4] = system: CC(=O)N[C@H]1[C@H](O[C@H]2[C@@H](O)[C@@H](CO)O[C@@H](O[C@@H]([C@H](O)[C@@H](O)CNc3cc(S(=O)(=O)O)c4ccc5c(S(=O)(=O)O)cc(S(=O)(=O)O)c6ccc3c4c65)[C@H](O)CO)[C@@H]2O)O[C@H](CO)[C@@H](O[C@@H]2O[C@H](CO)[C@H](O)[C@H](O)[C@H]2O)[C@@H]1O; details: other: apparent; APTS-labelled acceptor, CMP-Neu5Ac 200 μM, room temperature
Procedure: as §1, §2

[5] = system: O=S(=O)(O)c1cc(NC[C@H](O)[C@@H](O)[C@H](O[C@@H]2O[C@H](CO)[C@H](O)[C@H](O)[C@H]2O)[C@H](O)CO)c2ccc3c(S(=O)(=O)O)cc(S(=O)(=O)O)c4ccc1c2c34; details: other: apparent; APTS-labelled acceptor, CMP-Neu5Ac 200 μM, room temperature
Procedure: as §1, §2

[6] = system: O=S(=O)(O)c1cc(NC[C@H](O)[C@@H](O)[C@H](O[C@@H]2O[C@H](CO)[C@H](O[C@H]3O[C@H](CO)[C@H](O)[C@H](O)[C@H]3O)[C@H](O)[C@H]2O)[C@H](O)CO)c2ccc3c(S(=O)(=O)O)cc(S(=O)(=O)O)c4ccc1c2c34; details: other: apparent; APTS-labelled acceptor, CMP-Neu5Ac 200 μM, room temperature
Procedure: as §1, §2

Question: For “purified recombinant α-2,3-sialyltransferase (Neisseria meningitidis MC58)”, which Km [1] is on record?
Answer: 113 µM

Question: And the kcat [1]?
Answer: 0.0383 s⁻¹

Question: And the Km [2]?
Answer: 20 µM

Question: What about the Km [3] of the same substance?
Answer: 67 µM

Question: And the kcat [3]?
Answer: 0.118 s⁻¹

Question: And the Km [4]?
Answer: 42 µM

Question: And the Km [5]?
Answer: 168 µM

Question: What about the kcat [5] of the same substance?
Answer: 0.0633 s⁻¹

Question: What about the Km [6] of the same substance?
Answer: 139 µM

Question: What about the kcat [6] of the same substance?
Answer: 0.013 s⁻¹
